Molecular target: T1, N-terminally Flag-tagged human TLR2 (Homo sapiens, UniProt O60603)
T1 construct: Toll-like receptor 2, human; also called hTLR2; Toll-like receptor 2; source: HEK293, transiently transfected, in lysate; not shown: Flag, N-terminal, kept
Experiment: co-IP; HEK293 cells co-transfected with Flag-tagged human TLR2 and myc-tagged intrabody; lysed after 48 h (0.5% NP40, 150 mM NaCl); IP with myc-specific antibody and protein G beads, 4°C, 16 h, 5 washes; blot with tag-specific antibodies
Settings: partners not purified

T1 sequence (O60603 21-784): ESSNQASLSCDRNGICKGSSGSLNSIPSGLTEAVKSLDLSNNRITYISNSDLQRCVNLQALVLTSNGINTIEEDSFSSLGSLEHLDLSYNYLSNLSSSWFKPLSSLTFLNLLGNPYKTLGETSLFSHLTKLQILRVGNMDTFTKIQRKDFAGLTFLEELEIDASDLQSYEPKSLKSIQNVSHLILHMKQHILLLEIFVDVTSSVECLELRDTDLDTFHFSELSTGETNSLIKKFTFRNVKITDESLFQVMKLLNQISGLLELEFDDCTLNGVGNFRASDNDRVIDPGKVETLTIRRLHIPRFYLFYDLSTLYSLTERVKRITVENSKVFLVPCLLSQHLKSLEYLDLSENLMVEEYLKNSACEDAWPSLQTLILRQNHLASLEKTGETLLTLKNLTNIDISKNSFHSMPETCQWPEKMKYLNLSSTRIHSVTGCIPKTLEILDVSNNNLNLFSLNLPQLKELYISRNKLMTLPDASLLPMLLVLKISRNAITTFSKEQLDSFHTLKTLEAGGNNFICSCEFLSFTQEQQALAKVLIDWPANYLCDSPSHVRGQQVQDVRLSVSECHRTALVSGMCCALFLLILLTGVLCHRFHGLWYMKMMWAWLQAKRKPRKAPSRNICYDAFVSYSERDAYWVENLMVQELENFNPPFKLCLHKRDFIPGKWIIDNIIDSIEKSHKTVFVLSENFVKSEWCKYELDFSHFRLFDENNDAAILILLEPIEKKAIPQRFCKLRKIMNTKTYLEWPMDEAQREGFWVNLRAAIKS

binding result: binds
B1: anti-TLR2 scFv ER intrabody (αT2ib) (scFv, V domains shown)
VH: QVQLQQSGPELVNPGASVKLSCKASGFTFTTYGINWVKQGPGQGLEWIGWIYPRDGSTNFNENFKDKAALTVDTSSSTAYMELHSLTSEDSAVYFCARLTGGTFLDYWGQGTTVTVSS
VL: DIELTQSPASLAVSLGQRATISCRASESVEYYGTSLMQWYQQKPGQPPKLLIFGASNVESGVPVRFSGSGSGTDFSLNIHPVEEDDIVMYFCQQSRKLPWTFGGGTKLEIK
notes: VH of mouse mAb T2.5 (anti human/murine TLR2), amplified from hybridoma cDNA with consensus primers; synthetic 15 amino acid linker, printed as (Gly4Ser)3, between VH and VL; VL (kappa) of mouse mAb T2.5, amplified from hybridoma cDNA with consensus primers; Apparent size about 30 kDa; also called anti-TLR2 ER intrabody; TLR2 specific intrabody; source: HEK293, transiently transfected …
